Assay results published in the nanobody polyreactivity screen of Harvey et al. (2022).

assay: yeast display, Sf9 membrane polyspecificity reagent, FACS + sequencing; frameworks hold sequencing errors
Procedure, shortened: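 Using colony PCR, genes from sorted yeast display clones were amplified, then sequenced on MiSeq at 2 × 250 and filtered by CDR length. The clones had been stained with 10% biotinylated, detergent-solubilized Sf9 membrane reagent for 1 hour at 4 °C and sorted by FACS into low and high (top ~1%) gates on anti-HA and streptavidin fluorescence. Polyreactivity labels come from the gate of origin.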

Row | Sequence | polyreactivity (PSR sort gate)
1 | QDQLVDSGGGLVQAGGSLRLSCAASGSTFYYYTMGWYRQAPGKEGELVAAITSGGSTYYADSVKGRFTISRDNAKNTVYLQLNSLKPEDTAVYYCAADLRRNGWGFDYWGQGTQVTVSS | high polyreactivity
2 | QDQLVDSGGGLVQAGGSLSLICAATGLIFNRNAMGWYRQAPGKERELVASISSGGRTNYADSVKGRFTISRDNAKNTVYLQMNSLKPEDTAVYYCAAKSPRILLDYWGQGTQVTVSS | low polyreactivity
3 | QDQLVDSGGGLVQAGGSLSLSCAASGYILDYYAMGWSRQAPGKERELVAAISYRGDSTYYADSVKGRFTISRDNEKNTVYLQMNSLKPEDTAVYYCNAGYFTRAQYEYDYWGQGSQVTVSS | high polyreactivity
4 | QDQLVESAGGLVQAGGSLRLSCAASGLTFWDYAMGWSRQAPGKERELVAGINTRGTSTYYADSVKGRFTISRDNAKNNVYLQMNSLKPEDTAVYYCAARVRSELIKRYYWGQGSQVTVSS | high polyreactivity
5 | QDQLVESAGGLVQAGGSLRLSCAASGRIYVSNVMRWSRQAPGKERELVAAIDKSGGSTYYADSVKGRFTISRDNAKNTVYLQMNSLKPEDTAVYYCAATSYRQPYRYYYWGQGTQVTVSS | high polyreactivity
6 | QDQLVESAGGLVQAGGSLSLSCAATGFTFYYNAMGWYRPAAGKERELVASITRSGGRTYYADSVKGRFTISRDNAKNTVYLQMNSLKPEDTAVFYCARRYPGGYYWGQGTQVTVSS | high polyreactivity
7 | QDQLVESCGGLVQARGSLRLSCAASGFTFRYNAMGWYRQAPGKERELVAAITGSTGTTYYADSVKGRFTISRDNAKNTVYLQMNSLKPEDTAVYYCAATFRDQHGSLYGYWGQGSQVTVSS | high polyreactivity
8 | QDQLVESGAGLVQAAGSLRLSCAASGSTFDTYALGWYRQAPGKERELVAAISVSGTSTSYADSVKGRFTISRDNAKNTVYLQMNSLKPEDTAVYYCNATDFSRNPGYARPEYDYWGQGTHVTVSS | low polyreactivity
9 | QDQLVESGAGLVQAGGSLRLSCAASGRIFDRYAMGWYRQAPGKEREMVAAITTSSGGSTYYADSVKGRFTISRDNAKNTVYLQMHSLKPEDTAVYYCAADRRYNVIGEFGYWGQGTQVTVSS | low polyreactivity
10 | QDQLVESGGCLDQAGCSLRLSCAASGSIFYYNAMGWSRQAHGKESEFVATITNSGGRTYDADSVKGRFTISRDNAKNSVYLQMNSLKPEDTAVYYCNADVHRFSGNGYRYYYWGQGTQVTVSS | low polyreactivity
11 | QDQLVESGGCLVQAGGSLRLSCAASGSIFYVNAMGWYRPAPRKERELVAGISRSGGRTYYADSVKGRFTISRDNAKNTVYLHMNSLIPEDTAVYYCAALVGRIWYGLDYWGQGTQVTVSS | high polyreactivity
12 | QDQLVESGGCLVQAGGSLRLSCAASGSTFDTNSMGWSRQAPGKERELVAAISGSGVRTYYADSVKGRFSISRDNAKITVYLQMNRLNPEDTAVYYCAARGSRRGTWYDYWGQCTQVTVSS | high polyreactivity
13 | QDQLVESGGGIVQAGGSLRLSCAASGIIFGFYAMGWYIKAPGKERELVASISYSGGRTYYADSVKGRFTISRDNAKNTFYLQMISLKPEDTAVYYCAARLYWIPPSPSRYDYWGQGTQVTVSS | high polyreactivity
14 | QDQLVESGGGIVQAGGSLRLSCAASGRTFVAYAMGLYRQAPGKEREFVARISSGGSTYYADSVKGRFTISRDNAKNTVYLQMNSLKPEDTAVYYCAADRGPYFVPWRRYDYWGQGTQVTVSS | low polyreactivity
15 | QDQLVESGGGIVQAGGSLRLSCAASGRTFYRYAMGWYRQAPGKERELVATISGGGSTNYADSVKGRFTISRDNAKNTVYFQMNSLKPEDTAVYYCAVRLRPPYYLPYYYWGQGTQVTVSS | high polyreactivity
16 | QDQLVESGGGLDQAGGSLRLSCAASGNIFYSYAMGCYRQAPGKERELVAAISSSGGRTYYADSVKGRFTISRDNAKNTVYLQMNSLKPEDTELYYCNAYVQVMRYLFGRPTVYPYDYWGQGTQVTVSS | high polyreactivity
17 | QDQLVESGGGLDQAGGSLRLSCAASGRIFYPYTMGWYRQAPGKERELVAANTRSAASTHYADSVKGRFTISRDNAKNTVYLQMNSLKPEDTAVYYCAADDRGSSYGHFTVEYGYWGQGTQVTVSS | low polyreactivity
